According to the Immune Epitope Database (IEDB):
One block for each sequence: values may come before it.

How the values were obtained:
[1] = target: HLA-A*11:01; assay: IEDB peptide-MHC binding, purified MHC/competitive/fluorescence; ≥ and ≤ were set here for values at or beyond the usual limits of such assays; details: source organism: Vaccinia virus
[2] = target: HLA-B*07:02; assay: as above
[3] = target: HLA-A*03:01; assay: as above
[4] = target: HLA-B*40:01; assay: IEDB peptide-MHC binding, purified MHC/competitive/fluorescence; filed as Kd, often an IC50 or EC50 that approximates it; ≥ and ≤ were set here for values at or beyond the usual limits of such assays
[5] = target: HLA-A*24:03; assay: IEDB peptide-MHC binding, purified MHC/direct/fluorescence; filed as Kd, often an IC50 or EC50 that approximates it; ≥ and ≤ were set here for values at or beyond the usual limits of such assays
[6] = target: HLA-A*23:01; assay: as above
[7] = target: HLA-A*02:01; assay: IEDB peptide-MHC binding, purified MHC/competitive/radioactivity; ≥ and ≤ were set here for values at or beyond the usual limits of such assays
[8] = target: HLA-A*24:03; assay: IEDB peptide-MHC binding, purified MHC/competitive/fluorescence; filed as Kd, often an IC50 or EC50 that approximates it; ≥ and ≤ were set here for values at or beyond the usual limits of such assays
[9] = target: HLA-B*51:01; assay: as above
[10] = target: HLA-B*58:01; assay: as above; details: source organism: Escherichia coli
[11] = target: HLA-A*02:01; assay: as above
[12] = target: HLA-C*05:01; assay: IEDB peptide-MHC binding, purified MHC/direct/fluorescence; filed as Kd, often an IC50 or EC50 that approximates it; ≥ and ≤ were set here for values at or beyond the usual limits of such assays; details: source organism: Escherichia coli
[13] = target: HLA-A*01:01; assay: IEDB peptide-MHC binding, purified MHC/competitive/fluorescence; filed as Kd, often an IC50 or EC50 that approximates it; ≥ and ≤ were set here for values at or beyond the usual limits of such assays; details: source organism: Influenza A virus (A/Yokohama/22/2002(H1N2))
[14] = target: HLA-B*27:03; assay: as above; details: source organism: Influenza A virus (A/Yokohama/22/2002(H1N2))
[15] = target: HLA-B*57:01; assay: as above; details: source organism: Influenza A virus (A/Yokohama/22/2002(H1N2))
[16] = target: HLA-B*15:01; assay: as above
[17] = target: HLA-B*46:01; assay: as above; details: source organism: Influenza A virus (A/Yokohama/22/2002(H1N2))
[18] = target: HLA-A*26:01; assay: as above; details: source organism: Influenza A virus (A/Yokohama/22/2002(H1N2))
[19] = target: HLA-A*69:01; assay: as above; details: source organism: Influenza A virus (A/Yokohama/22/2002(H1N2))
[20] = target: HLA-B*39:01; assay: as above; details: source organism: Influenza A virus (A/Yokohama/22/2002(H1N2))
[21] = target: HLA-B*15:17; assay: as above; details: source organism: Influenza A virus (A/Yokohama/22/2002(H1N2))
[22] = target: HLA-B*18:01; assay: as above; details: source organism: Influenza A virus (A/Yokohama/22/2002(H1N2))
[23] = target: HLA-A*02:19; assay: IEDB peptide-MHC binding, purified MHC/direct/fluorescence; filed as Kd, often an IC50 or EC50 that approximates it; ≥ and ≤ were set here for values at or beyond the usual limits of such assays; details: source organism: Influenza A virus (A/England/654/2007(H1N1))
[24] = target: HLA-A*02:03; assay: as above; details: source organism: Influenza A virus (A/England/654/2007(H1N1))
[25] = target: HLA-A*29:02; assay: as above; details: source organism: Influenza A virus (A/England/654/2007(H1N1))
[26] = target: HLA-A*68:02; assay: as above; details: source organism: Influenza A virus (A/England/654/2007(H1N1))
[27] = target: HLA-A*02:12; assay: as above; details: source organism: Influenza A virus (A/England/654/2007(H1N1))
[28] = target: HLA-A*03:01; assay: as above; details: source organism: Influenza A virus (A/England/654/2007(H1N1))
[29] = target: HLA-A*02:11; assay: as above; details: source organism: Influenza A virus (A/England/654/2007(H1N1))
[30] = target: HLA-A*02:16; assay: as above; details: source organism: Influenza A virus (A/England/654/2007(H1N1))
[31] = target: HLA-B*07:02; assay: IEDB peptide-MHC binding, purified MHC/competitive/fluorescence; filed as Kd, often an IC50 or EC50 that approximates it; ≥ and ≤ were set here for values at or beyond the usual limits of such assays
[32] = target: HLA-A*24:02; assay: IEDB peptide-MHC binding, purified MHC/competitive/fluorescence; ≥ and ≤ were set here for values at or beyond the usual limits of such assays; details: source organism: Vaccinia virus Copenhagen
[33] = source organism: Vaccinia virus
[34] = source organism: Vibrio vulnificus CMCP6
[35] = source organism: Zaire ebolavirus
[36] = source organism: Escherichia coli
[37] = source organism: Influenza A virus (A/Yokohama/22/2002(H1N2))
[38] = source organism: Influenza A virus (A/England/654/2007(H1N1))
[39] = source organism: Vaccinia virus Copenhagen
[40] = source organism: Salmonella enterica subsp. enterica serovar Typhi
[41] = source organism: Human papillomavirus 16
[42] = source organism: Burkholderia mallei ATCC 23344

Sequence: LVRSETKQK
IC50 [1]: 7.02 µM | IC50 [2, 33]: 34.6 µM | IC50 [3, 33]: 5.02 µM

Sequence: LESAIGLPM
Kd ([4]; source organism: Shigella flexneri 5 str. 8401): 0.0072 µM

Sequence: MFVSNRWFL
Kd [5, 34]: 0.005 µM | Kd [6, 34]: 0.002 µM

IC50 ([7]; source organism: Homo sapiens): 0.5 µM
Sequence: VLPSPACQLV

Sequence: LLALLSCLTI
IC50 ([7]; source organism: Hepacivirus hominis): 0.385 µM

Sequence: NPIVPSFDM
IC50 ([2]; source organism: Influenza A virus (A/Oklahoma/309/2006(H3N2))): 1.23 µM

Sequence: PSGSTSPRM
IC50 [2, 35]: ≥ 202 µM

Kd [8, 36]: 2.58 µM
Sequence: QYVLMPGKV

Sequence: IPSATKRWG
IC50 ([2]; source organism: Sudan ebolavirus): 49.6 µM

Kd [9, 36]: 2.97 µM | Kd [10]: 0.0129 µM | Kd [11, 36]: 0.0261 µM | Kd [12]: 0.347 µM
Sequence: RAMACSALI

Kd ([4]; source organism: Escherichia coli 536): ≥ 20 µM
Sequence: MEIKILHKQ

IC50 ([7]; source organism: Homo sapiens): 0.847 µM
Sequence: TVILGVLLL

Sequence: WTGMVDGWY
Kd [9, 37]: ≥ 20 µM | Kd [13]: 0.0103 µM | Kd [14]: ≥ 20 µM | Kd [15]: ≥ 20 µM | Kd [16, 37]: ≥ 20 µM | Kd [17]: ≥ 20 µM | Kd [18]: ≥ 20 µM | Kd [19]: ≥ 20 µM | Kd [20]: ≥ 20 µM | Kd [21]: ≥ 20 µM | Kd [22]: ≥ 20 µM | Kd [11, 37]: ≥ 20 µM | Kd [23]: ≥ 20 µM | Kd [24]: ≥ 20 µM | Kd [25]: ≥ 20 µM | Kd [26]: ≥ 20 µM | Kd [5, 38]: ≥ 20 µM | Kd [6, 38]: ≥ 20 µM | Kd [27]: ≥ 20 µM | Kd [28]: ≥ 20 µM | Kd [29]: ≥ 20 µM | Kd [30]: ≥ 20 µM

Sequence: VPRYAFAM
Kd ([31]; source organism: Influenza A virus): ≤ 0.001 µM

Sequence: NLGNLNVSI
IC50 ([7]; source organism: Hepatitis B virus subtype ayw): 0.076 µM

Sequence: LPYPYSSSA
Kd ([31]; source organism: Shigella boydii CDC 3083-94): 0.0796 µM

Sequence: SLYNAIATL
IC50 ([7]; source organism: Human immunodeficiency virus 1): 0.036 µM

Sequence: IVFYRSGTE
IC50 [32]: ≥ 6580 µM | IC50 [2, 39]: ≥ 223 µM | IC50 [3, 39]: ≥ 85.9 µM

Sequence: AELFVAHYM
Kd [16, 40]: ≥ 20 µM | Kd [4, 40]: 0.0108 µM

Sequence: TLIDVCPI
IC50 [7, 41]: 0.033 µM

Sequence: LKNDLLENLQ
IC50 ([2]; source organism: Influenza A virus (A/Victoria/1968(H3N2))): ≥ 495 µM

Sequence: PFFFGFSHF
Kd [5, 42]: 0.704 µM | Kd [6, 42]: 0.024 µM

Sequence: EPVVFSTSD
IC50 [2, 35]: ≥ 144 µM

Sequence: AIMEKNIML
IC50 ([7]; source organism: Influenza A virus (A/Alaska/6/1977(H3N2))): 0.104 µM

Sequence: VLLLWITAA
IC50 [7, 41]: 0.011 µM

Kd ([8]; source organism: Escherichia coli APEC O1): 0.0029 µM
Sequence: HYGTEGQEF

Sequence: MENLMYALL
Kd ([4]; source organism: Bacillus anthracis str. A0488): 0.0284 µM
